Drawing on publication PMC11062245, this text covers K half for three sequences.

For the series, the target named is T1, melanopsin (mOPN4-Flag), on Per2:ELuc:TK:Mel cells (mouse) (UniProt Q9QXZ9).
T1 sequence: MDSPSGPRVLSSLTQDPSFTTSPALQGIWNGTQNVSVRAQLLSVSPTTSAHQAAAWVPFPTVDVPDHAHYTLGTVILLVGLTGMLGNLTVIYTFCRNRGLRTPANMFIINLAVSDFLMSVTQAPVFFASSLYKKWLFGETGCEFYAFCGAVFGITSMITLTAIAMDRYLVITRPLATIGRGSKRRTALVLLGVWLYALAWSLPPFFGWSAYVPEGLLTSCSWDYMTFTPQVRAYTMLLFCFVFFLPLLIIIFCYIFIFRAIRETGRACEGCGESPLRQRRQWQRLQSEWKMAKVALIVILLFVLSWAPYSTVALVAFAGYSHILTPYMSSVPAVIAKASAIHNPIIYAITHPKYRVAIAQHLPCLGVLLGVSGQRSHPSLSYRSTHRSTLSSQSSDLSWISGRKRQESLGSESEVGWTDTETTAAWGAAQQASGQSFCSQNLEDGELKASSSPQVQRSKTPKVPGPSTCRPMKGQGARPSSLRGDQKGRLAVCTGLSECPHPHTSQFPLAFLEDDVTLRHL
The experiment in a line: cell binding fluorescence (microplate), EC50. The following applies: 6-FAM-Melapt (1.405-90 ug/mL) added to adherent cells in DMEM, 15 min, washed, fluorescence 495/517 nm, n=3, cells cultured at 37 C, 5% CO2, binding pH and ….

“AAAGGGGAATTCGGATCCCCGCACACGTGGAGCCAAGTCGAGTTTAATTCCCTATCGCCTGCAGAAGCTTCCGTTT [6-FAM-Melapt04]” had a K half of 5.62 µg/mL.
Same read-out and setting: next, “AAAGGGGAATTCGGATCCCGACCCGAAGGAGCGGTGGATAACCCCACCAAGATACGTCCTGCAGAAGCTTCCGTTT [6-FAM-Melapt01]”: 11.2 µg/mL.
“AAAGGGGAATTCGGATCCTTCACCGATACGGCTCCCTTGGCCAGACAGGAAAAAATAACTGCAGAAGCTTCCGTTT [6-FAM-Melapt08]” showed a K half (Results text gives 22.5 ug/mL, not saturated at 90 ug/mL) of 45 µg/mL.
